13 molecules from patent US20230287433, “APTAMERS FOR PERSONAL HEALTH CARE APPLICATIONS” (The Procter & Gamble Company, published 2023) can be followed below.

Data set [1] has as its target T1, ICAM-1 extracellular domain (C-terminal His) (Homo sapiens, UniProt P05362 SEQ:1-453). Nature of the data set: SPR; aptamer immobilized on gold chip; 250 nM ICAM-1. The note with it: tags: C-terminal His6; Ray-Biotech 228-21751-2. The protocol:
(§1) After conjugation of the cystamine moeities to phosphoramidate bonds at the 5′ phosphate group, the aptamer was immobilized on a gold chip by depositing an aliquot of 10 nL of aptamer solution at a concentration of 10 μM onto the surface of the chip. The gold reduces the cystamine to a pair of thiols and then catalyzes the reduction reaction that results in the covalent bond between the gold surface and the thiol groups of the modified aptamers.
(§2) Solutions of 200 μL of ICAM-1 protein or human serum albumin were flown over the gold chip at a concentration of 250 nM and a flow rate of 50 μL/min using an Openplex Surface Plasmon Resonance System (Horiba, Kyoto, Kyoto, Japan). Thus, the association phase lasted for 4 minutes after injection and was immediately followed by the disassociation phase. The total resonance of the negative control aptamer was subtracted from the total resonance observed for each of the candidate aptamers. The result corresponds to the resonance contribution due to the binding of the protein to the aptamer.
where Rmax is the maximum resonance due to binding observed, and c is the concentration of the injectant. Finally, the dissociation equilibrium constant kD was calculated as the ratio of kd over ka (see Table 2). The low nanomolar kD values obtained for the different aptamers confirm the strong binding affinity of such molecules towards ICAM-1 and validate the aptamer selection process described in Example 1. As used herein, “kd” refers to the dissociation rate, “ka” refers to the association rate, and “kD” refers to the dissociation equilibrium constant.
For orientation: In SPR one partner is held on a chip, and binding of the other changes the refractive index at the surface.

The next data set has as its target human serum albumin (Homo sapiens, UniProt P02768 P02768:25-609). Put plainly: SPR; 250 nM HSA, no significant binding. The protocol: as §1, §2
Data set [2] deals with T2, ICAM-1 (on cells) (Homo sapiens, UniProt P05362 SEQ:28-532). Nature of the data set: HNEpC cells, FAM-RNA 500 nM, 37 C; qPCR binding higher than to HEK293. The settings on record: tags: endogenous on HNEpC (PromoCell C-21060) or H1-HeLa cells. A general note: In qPCR the cycle at which signal appears reflects the starting amount.
The target in data set [3] is T1, ICAM-1 extracellular domain (C-terminal …). Put plainly: ITC; 37 C, potassium phosphate; 7.96 nM at 33 C. The note with it: tags: C-terminal His6; Ray-Biotech 228-21751-2. The protocol:
(§3) Aptamers as disclosed herein were selected to perform at 37° C. in the SELEX selection process. Further, all experiments relating to performance of aptamers executed on cells grown in culture were performed at 37° C. as well, as this was the appropriate temperature for optimal cell growth and corresponds to body temperature. However, the aptamers are intended to function on the inner surface of the nasal cavity in vivo and said nasal cells show a slightly lower average temperature of 33° C. As such it was important to ensure that the aptamers of the present invention perform at both temperatures. Accordingly, binding analysis was executed using isothermal titration calorimetry (ITC) using Nano ITC (Low Volume of TA Instruments) and following user instructions for the NasD-4.1 aptamer (SEQ ID NO: 244) at 37° C. as well as at 33° C. Specific mutations in sequence (SEQ ID NO: 264-270) were tested to analyze the impact of temperature and secondary structure. 600 nM concentration of the NasD-4.1 aptamer was injected in 11 injections of 4.88 uL each into a 100 nM concentration of ICAM-1 receptor protein in a volume of 193 uL. The same concentration of mutant aptamer was injected into buffer, as well as buffer was injected into the same amount of protein as controls. The ITC experiments were performed at 33° C. and 37° C. in potassium phosphate buffer.
For orientation: Isothermal titration calorimetry measures the heat released or taken up as one component is titrated into another.

For data set [4], the target named is T2, ICAM-1 (on cells). Put plainly: HNEpC cells, 0.5 h, 500 nM; RH-30 hardly detectable. The settings on record: tags: endogenous on HNEpC (PromoCell C-21060) or H1-HeLa cells; label: FAM. The protocol: (§4) Fluorescein amidite (FAM)-conjugated DNA aptamers were incubated at 500 nM onto cells cultured in 24-well plates for 4 hours at 37° C. in 5% CO2. At specific timepoints (0.5h, 1h, 2h, 4h), the cell media was aspirated, and the wells were washed three times with 1× selection buffer. To elute and lyse the cells, 200ul of 6M urea was applied to the well and incubated at 37° C. for 5 minutes. The urea-aptamer solution was transferred and measured in a 96-well microplate reader at 495 nm absorbance. Samples were measured in triplicate. FIGS. 23 to 26 show the results.
Maximal binding of the truncated sequence Nas.D-5 (SEQ ID NO: 245) can be observed after 0.5 hours, wherein more than 2 times of the truncated aptamers bound to HNEpC compared to the parent aptamer. Binding to RH-30 cells was hardly detectable (FIG. 25). […] The absolute number of bound oligonucleotides of the truncated aptamer (SEQ ID NO: 246) is again higher than the number of bound oligonucleotides of the parent sequence (SEQ ID NO: 108).

Data set [5] addresses T1, ICAM-1 extracellular domain (C-terminal …). Put plainly: ITC; 37 C, potassium phosphate; 1.27 nM at 33 C (tighter). The note with it: tags: C-terminal His6; Ray-Biotech 228-21751-2. The protocol:
as §3

The target is the same in data set [6]. Nature of the data set: ITC; 37 C, potassium phosphate; 14.3 nM at 33 C. The settings on record: tags: C-terminal His6; Ray-Biotech 228-21751-2. The protocol: as §3
Data set [7] has the same target. Put plainly: ITC; 37 C, potassium phosphate; 9.09 nM at 33 C. The note with it: tags: C-terminal His6; Ray-Biotech 228-21751-2. The protocol:
as §3

The target in data set [8] is T2, ICAM-1 (on cells). Put plainly: HNEpC cells, 2 h, 500 nM; RH-30 below 500 RFU. The settings on record: tags: endogenous on HNEpC (PromoCell C-21060) or H1-HeLa cells; label: FAM in cell assay; hairpin with dangling 5' and 3' ends. The protocol: as §4
Maximal binding can be seen after 2 hours, wherein the absolute number of the truncated sequence bound to HNEpC is 2.5 times of the number of the parent aptamer bound. Binding to RH-30 cells is similar for both aptamers, truncated sequence (SEQ ID NO: 244) and parent sequence (SEQ ID NO: 104) and below 500 RFU.

For data set [9], the target named is T1, ICAM-1 extracellular domain (C-terminal …). Nature of the data set: ITC; 37 C, potassium phosphate; 8.86 nM at 33 C. The settings on record: tags: C-terminal His6; Ray-Biotech 228-21751-2; label: FAM in cell assay; hairpin with dangling 5' and 3' ends. The protocol: as §3
For data set [10] the target is unchanged. Nature of the data set: ITC; 37 C, potassium phosphate; 10 nM at 33 C. The settings on record: tags: C-terminal His6; Ray-Biotech 228-21751-2. The protocol: as §3
The target is the same in data set [11]. Put plainly: ITC; 37 C, potassium phosphate; 37 nM at 33 C (weaker). The note with it: tags: C-terminal His6; Ray-Biotech 228-21751-2. The protocol: as §3
Data set [12] shares this target. Nature of the data set: ITC; 37 C, potassium phosphate; 18.1 nM at 33 C. The note with it: tags: C-terminal His6; Ray-Biotech 228-21751-2. The protocol:
as §3

By Kd is commonly meant a measure of binding affinity in units of concentration.

T2 sequence (P05362 28-532): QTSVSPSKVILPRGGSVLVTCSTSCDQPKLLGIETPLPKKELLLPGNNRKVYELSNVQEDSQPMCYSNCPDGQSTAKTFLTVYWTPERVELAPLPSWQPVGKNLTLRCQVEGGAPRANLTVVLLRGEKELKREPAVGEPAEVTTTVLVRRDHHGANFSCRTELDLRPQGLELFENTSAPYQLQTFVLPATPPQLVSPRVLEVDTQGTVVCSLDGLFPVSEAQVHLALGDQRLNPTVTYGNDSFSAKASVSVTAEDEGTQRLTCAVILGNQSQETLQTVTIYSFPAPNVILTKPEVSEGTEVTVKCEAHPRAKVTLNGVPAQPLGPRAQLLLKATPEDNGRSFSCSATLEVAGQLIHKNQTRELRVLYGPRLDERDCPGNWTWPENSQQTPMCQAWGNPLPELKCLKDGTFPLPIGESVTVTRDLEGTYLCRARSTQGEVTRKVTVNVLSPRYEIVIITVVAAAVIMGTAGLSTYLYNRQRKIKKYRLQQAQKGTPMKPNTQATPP
T1 sequence (P05362 28-480): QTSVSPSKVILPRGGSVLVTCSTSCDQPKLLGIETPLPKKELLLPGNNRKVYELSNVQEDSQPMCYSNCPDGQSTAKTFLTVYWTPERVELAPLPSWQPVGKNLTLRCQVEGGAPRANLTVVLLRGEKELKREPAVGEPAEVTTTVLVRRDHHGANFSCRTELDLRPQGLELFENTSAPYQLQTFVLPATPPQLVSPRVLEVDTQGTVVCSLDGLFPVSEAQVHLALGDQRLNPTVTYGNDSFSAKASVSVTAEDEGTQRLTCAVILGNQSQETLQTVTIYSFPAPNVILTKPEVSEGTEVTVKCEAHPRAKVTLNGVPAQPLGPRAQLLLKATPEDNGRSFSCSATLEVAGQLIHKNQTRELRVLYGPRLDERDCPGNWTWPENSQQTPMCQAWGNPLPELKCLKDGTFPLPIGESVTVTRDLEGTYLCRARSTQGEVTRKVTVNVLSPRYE
Sequence of human serum albumin (P02768 25-609, one chain of several): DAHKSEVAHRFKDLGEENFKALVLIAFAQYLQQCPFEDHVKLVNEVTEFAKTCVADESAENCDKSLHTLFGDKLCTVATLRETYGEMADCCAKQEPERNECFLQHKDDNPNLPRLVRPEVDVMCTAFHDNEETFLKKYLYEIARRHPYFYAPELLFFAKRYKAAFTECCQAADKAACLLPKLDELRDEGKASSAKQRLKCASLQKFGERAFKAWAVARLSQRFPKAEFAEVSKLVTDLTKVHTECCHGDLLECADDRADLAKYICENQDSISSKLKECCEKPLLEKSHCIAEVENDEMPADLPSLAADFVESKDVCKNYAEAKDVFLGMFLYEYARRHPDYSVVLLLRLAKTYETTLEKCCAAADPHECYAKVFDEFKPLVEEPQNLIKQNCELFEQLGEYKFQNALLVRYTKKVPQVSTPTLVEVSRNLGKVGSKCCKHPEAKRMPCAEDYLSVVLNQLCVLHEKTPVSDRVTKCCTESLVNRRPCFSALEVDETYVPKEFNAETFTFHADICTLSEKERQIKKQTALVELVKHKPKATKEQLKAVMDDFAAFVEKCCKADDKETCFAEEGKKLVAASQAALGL

B1: Nas.R-8 (ssRNA)
RNA: GGGUGCAUCGUUUACGCGUAAAAAUUAAAGAGAUUAAGGUCCUUAAGCAGUUUUGUCCUGCUGCUGAGGAAGGAUAUGAG
modifications: 2'-F pyrimidines (all C and U)
Take B1: the affinity in data set [1], expressed as Kd, was 28.4 nM. Also, in the data set with human serum albumin, the binding result is given as “no binding”. Moreover, the binding signal with ICAM-1 (on cells) [2] was determined as 12 % surface bound.

B2: Nas.R-1 (ssRNA)
RNA: GGGUGCAUCGUUUACGCGAUUAGUCUGAUAAACAAAAAGAUUUCGCUAAAAAUCAAUCUGCUGCUGAGGAAGGAUAUGAG
modifications: 2'-F pyrimidines (all C and U)
On to B2, for which, in data set [1], binding was put at a Kd of 64.4 nM. Also, the binding result with human serum albumin was “no binding”. In data set [3], GTGCTCTCTTGTCAATCTATGACTGCTGGAGAGGAAG (ssDNA) [NasD-4.1 State 5] had a Kd of 5.14 nM.

B3: Nas.R-4 (ssRNA)
RNA: GGGUGCAUCGUUUACGCGCAACAUAAAAAUUUAAAGUGCUCAGUUGUCAAUCUAUGACUGCUGCUGAGGAAGGAUAUGAG
modifications: 2'-F pyrimidines (all C and U)
Take B3: binding in data set [1] was put at a Kd of 44.3 nM. The binding result with human serum albumin is on record as “no binding”. Also, the binding signal in the data set with ICAM-1 (on cells) [2] stood at 11 % surface bound.

On to GGGCGCACCGTTTACGCGTAAATCGGTCCGCTATT (ssDNA) [Nas.D-5.1], for which the binding signal in the data set with ICAM-1 (on cells) [4] was more than 2 fold vs parent Nas.D-5.

B4: Nas.R-2 (ssRNA)
RNA: GGGUGCAUCGUUUACGCAGAUAGCAGCAGGAAUCAAGCGGUAGGAGUCUAGCAGAAGCUGCUGCUGAGGAAGGAUAUGAG
modifications: 2'-F pyrimidines (all C and U)
B4 had a Kd in [1] of 70.2 nM. Besides, in the data set with human serum albumin, the binding result is on record as “no binding”. In addition, the binding signal in the data set with ICAM-1 (on cells) [2] was found to be 17 % surface bound. GTGCTCAGTTGTCAATCTAAGACTGCTGCTGAGGAAG (ssDNA) [NasD-4.1 State 6] gave a Kd in data set [5] of 18.6 nM. In the case of GTGCTCACTTGTCAATCTATGACTGCTGCTCAGGAAG (ssDNA) [NasD-4.1 State 3], in [6], the Kd was determined as 40.4 nM. On to GTGCTCAGTTGTCAAAGAATGACTGCTGCTGAGGAAG (ssDNA) [NasD-4.1 State 7], for which binding in data set [7] was characterised by a dissociation constant (Kd) of 6.77 nM. On to GTGCTCAGTTGTCAATCTATGACTGCTGCTGAGGAAG (ssDNA) [Nas.D-4.1], for which the binding signal in the data set with ICAM-1 (on cells) [8] was found to be 2.5 fold vs parent Nas.D-4. In data set [9], binding was characterised by a dissociation constant (Kd) of 11.2 nM. For GAGCTCAGTTGTCAATCTATGACTGCTGCTGAGGAAG (ssDNA) [NasD-4.1 State 2], binding in [10] was put at a Kd of 102 nM. Molecule GTGCTCACTTGTCAATCTATGACTGCTGCTGAGTAAG (ssDNA) [NasD-4.1 State 4] registered an equilibrium dissociation constant (Kd) in [11] of 6.39 nM. For the molecule GTGGTCAGTTGTGAATCTATGACTGCTGCTGAGGAAG (ssDNA) [NasD-4.1 State 1], in data set [12], the Kd was 2.83 nM.
